Measured values from paper PMC9241938.

Experiments:
[1] = system: RpaB (Synechocystis sp. PCC 6803?); assay: EMSA; conditions: EMSA: 12 mM HEPES, 4 mM Tris, 12 mM KCl, 1 mM EDTA, 1 mM EGTA, 12% glycerol, 1 ug poly(dIdC); 3% agarose, 0.5x TBE; pH 8.2 or 5 tested; probe 3.85 pmol …
[2] = target: cyAbrB1 (Sll0359), N-terminally 6*His-tagged recombinant protein (Synechocystis sp. PCC 6803); assay: native gel or EMSA; native SDS-PAGE (NSDS-PAGE) of the purified recombinant protein; native glycine polyacrylamide gel (15%, SDS omitted), running buffer 50 mM Tris-HCl, 200 mM glycine, 0.0375% SDS, pH 7.3, 4°C

Row | stoichiometry N [2] | Substance | Kd [1] [µM]
1 |  | TTTGCCCAATTTGACAATATATTAAGAAATCCTCATCTAACCTGTTTTTCATTGGATAATTAAAACAAGAGGAAAGATCAGGGGGCAGGAAAATAAATTACCTAATACCTAGTCCTGGTTGATAAAACCAGAGGCAGAAAACCTCCCCGTTTTCTCAAACTTGCCCAAAAGACAACTGTTGAGTTTCCCCCATTGGGACGGAGGTTATG (double strand) [PatpT66-5'UTR] | 5.62
2 | 2 | cyAbrB1 (Sll0359), N-terminally 6*His-tagged recombinant protein (natural protein) | 
